Measured values reported in article doi:10.1101/2023.12.12.571217 (2023).
Positions of bridges follow the written chain, without caps; N, C: chain ends.

Assays:
PADI4_N373A = test: SPR
[1] = target: T1, N-terminally biotinylated PADI4 (bio-His-PADI4), recombinant human peptidylarginine deiminase IV (human, UniProt Q9UM07 1-663, biotin on the N-terminal Avi-Tag (BirA co-expression)); test: SPR; 0 mM CaCl2
[2] = target: T1, N-terminally biotinylated PADI4 …; test: SPR; 10 mM CaCl2
PADI4_D165A = PADI4_D165A (human, UniProt Q9UM07 1-663, D165A); test: SPR
PADI4 variant R394A = PADI4 variant R394A (human, UniProt Q9UM07 1-663, R394 with an alanine); test: SPR
PADI4 variant D168A = PADI4 variant D168A (human, UniProt Q9UM07 1-663, D168A); test: SPR
PADI4 variant C166F = PADI4 variant C166F (human, UniProt Q9UM07 1-663, C166 with bulky phenylalanine); test: SPR
[3] = target: T1, N-terminally biotinylated PADI4 …; test: SPR
PADI4 variant E167A = PADI4 variant E167A (human, UniProt Q9UM07 1-663, E167A); test: SPR
[4] = target: T1, N-terminally biotinylated PADI4 …; test: SPR; 10 mM CaCl2 + Cl-amidine
[5] = target: T1, N-terminally biotinylated PADI4 …; test: SPR; remark: listed apart in the source

T1 sequence (Q9UM07 whole entry): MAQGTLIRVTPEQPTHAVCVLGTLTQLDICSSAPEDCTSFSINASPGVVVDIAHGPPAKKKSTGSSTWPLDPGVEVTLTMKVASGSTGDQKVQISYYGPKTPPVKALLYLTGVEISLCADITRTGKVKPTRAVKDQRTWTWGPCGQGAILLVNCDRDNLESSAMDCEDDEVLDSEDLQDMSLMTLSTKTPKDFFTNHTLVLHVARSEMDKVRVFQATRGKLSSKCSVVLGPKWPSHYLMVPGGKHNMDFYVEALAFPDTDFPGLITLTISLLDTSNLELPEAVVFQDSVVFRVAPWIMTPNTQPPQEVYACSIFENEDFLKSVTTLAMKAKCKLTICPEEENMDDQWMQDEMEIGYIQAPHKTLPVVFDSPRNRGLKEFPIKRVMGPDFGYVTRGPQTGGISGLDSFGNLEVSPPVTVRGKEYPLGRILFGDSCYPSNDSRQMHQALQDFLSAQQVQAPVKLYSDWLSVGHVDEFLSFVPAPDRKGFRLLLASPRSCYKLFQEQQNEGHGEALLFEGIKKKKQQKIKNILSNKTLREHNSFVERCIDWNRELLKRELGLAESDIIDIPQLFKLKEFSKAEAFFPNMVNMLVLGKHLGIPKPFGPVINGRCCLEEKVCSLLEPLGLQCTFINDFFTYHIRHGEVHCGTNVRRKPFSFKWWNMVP
PADI4_D165A, sequence (Q9UM07 whole entry D165A): as the sequence (Q9UM07 whole entry) above, with D165A counted along it
PADI4 variant D168A, sequence (Q9UM07 whole entry D168A): as the sequence (Q9UM07 whole entry) above, with D168A counted along it
PADI4 variant C166F, sequence (Q9UM07 whole entry C166F): as the sequence (Q9UM07 whole entry) above, with C166F counted along it
PADI4 variant E167A, sequence (Q9UM07 whole entry E167A): as the sequence (Q9UM07 whole entry) above, with E167A counted along it
PADI4 variant R394A, sequence (Q9UM07 whole entry R394A): as the sequence (Q9UM07 whole entry) above, with R394A counted along it

| Binder | Kd (PADI4_N373A) | Kd [1] | Kd [2] | Kd (PADI4_D165A) | Kd (PADI4 variant R394A) | Kd (PADI4 variant D168A) | Kd (PADI4 variant C166F) | Kd [3] | Kd (PADI4 variant E167A) | Kd [4] | Kd [5] |
| --- | --- | --- | --- | --- | --- | --- | --- | --- | --- | --- | --- |
| {CH2CO}-YESCRYRQVLQL-NH2 (thioether N-4; SMILES CC(C)C[C@H](NC(=O)[C@H](CCC(N)=O)NC(=O)[C@H](CC(C)C)NC(=O)[C@@H](NC(=O)[C@H](CCC(N)=O)NC(=O)[C@H](CCCNC(=N)N)NC(=O)[C@H](Cc1ccc(O)cc1)NC(=O)[C@H](CCCNC(=N)N)NC(=O)[C@@H]1CSCC(=O)N[C@@H](Cc2ccc(O)cc2)C(=O)N[C@@H](CCC(=O)O)C(=O)N[C@@H](CO)C(=O)N1)C(C)C)C(N)=O) [PADI4_11] | > 10 µM | > 5 µM | 0.457 µM | 3 µM | > 10 µM | 4 µM | > 10 µM | 0.457 µM | 0.7 µM | 0.382 µM | 0.5 µM |
| {CH2CO}-YESCRYKQVLQL-NH2 (thioether N-4) [PADI4_11 variant with lysine at R7] | – | – | – | – | – | – | – | – | – | – | 0.7 µM |
| {CH2CO}-YESCKYRQVLQL-NH2 (thioether N-4) [PADI4_11 variant with lysine at R5] | – | – | – | – | – | – | – | – | – | – | 1.4 µM |
